± gives the uncertainty stated by the source.
Assay: self-splicing fitness, log relative to wild type (ln ratio); higher = more splicing; Tetrahymena group I intron in knt gene, E. coli kanamycin selection, DiMSum; sequences stand for … in CUCUCU…GGAGGGAAAAGUUAUCAGGCAUGCACCUGGUAGCUAGUCUUUAAACCAAUAGAUUGCAUCGGUUUAAAAGGCAAGACCGUCAAAUUGCGGGAAAGGGGUCAACAGCCGUUCAGUACCAAGUCUCAGGGGAAACUUUGAGAUGGCCUUGCAAAGGGUAUGGUAAUAAGCUGACGGACAUGGUCCUAACCACGCAGCCAAGUCCUAAGUCAACAGAUCUUCUGUUGAUAUGGAUGCAGUUCACAGACUAAAUGUCGGUCGGGGAAGAUGUAUUCUUCUCAUAAGAUAUAGUCGGACCUCUCCUUAAUGGGAGCUAGCGGAUGAAGUGAUGCAACACUGGAGCCGCUGGGAACUAAUUUGUAUGCGAAAGUAUAUUGAUUAGUUUUGGAGUACUCGUGGUCG
How it was run: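 Library with all eight P1ex-region intron nucleotides randomised, intron inside the knt kanamycin-resistance gene on pET-22b(+), in E. coli BL21(DE3). Cells grew overnight at 37°C or 30°C on LB agar with or without 25 μg/mL kanamycin (plus 100 μg/mL carbenicillin, 50 μM IPTG, 0.2% rhamnose), in six replicate transformations. Pooled colonies were amplicon-sequenced on Illumina HiSeq 2500. DiMSum fitness is the error-weighted combination of wild-type-normalised replicate fold changes, kanamycin versus none.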

Sequence | self-splicing fitness (ln) (30 °C) | self-splicing fitness (ln) (37 °C)
GCGCAGCAAUAUUACGCAAA | -1.8 ± 0.087 | -0.777 ± 0.078
GCCCAGCAAUAUUACGACCU | -1.07 ± 0.12 | -0.407 ± 0.15
GAAAAGCAAUAUUACGAAUU | -1.37 ± 0.11 | -0.667 ± 0.12
UCUAAGCAAUAUUACGAUGU | -0.365 ± 0.06 | -0.355 ± 0.074
UACGAGCAAUAUUACGCGAU | -4.05 ± 0.3 | -2.28 ± 0.22
UAGCAGCAAUAUUACGUUAA | -2.13 ± 0.099 | -1.15 ± 0.084
CACUAGCAAUAUUACGAAUG | -1.7 ± 0.075 | -1.01 ± 0.086
UCCAAGCAAUAUUACGCAGC | -2.73 ± 0.21 | -2.89 ± 0.32
GCCAAGCAAUAUUACGGAGU | -0.992 ± 0.066 | -1.57 ± 0.09
CGAGAGCAAUAUUACGGUGG | -1.72 ± 0.34 | -2.24 ± 0.34
AAGCAGCAAUAUUACGCAAA | -1.82 ± 0.14 | -1.65 ± 0.13
CCGUAGCAAUAUUACGACGG |  | -0.894 ± 0.28
GAGUAGCAAUAUUACGUUGG | -3.06 ± 0.25 | -3.3 ± 0.46
GCUUAGCAAUAUUACGUUUG | -2.23 ± 0.12 | -1.58 ± 0.14
GUGAAGCAAUAUUACGUUUC | -3.08 ± 0.17 | -2.53 ± 0.34
GCUUAGCAAUAUUACGAUUG | -3.31 ± 0.25 | -1.01 ± 0.17
ACUGAGCAAUAUUACGAAGA | -2.33 ± 0.22 | -1.64 ± 0.2
AUAAAGCAAUAUUACGGUUU | -0.835 ± 0.072 | -0.0425 ± 0.098
ACCCAGCAAUAUUACGAGUC | -4.16 ± 0.15 | -2.3 ± 0.15
GCCUAGCAAUAUUACGCCAC | -2.82 ± 0.26 | -2.2 ± 0.23
ACCAAGCAAUAUUACGGACG | -1.09 ± 0.069 | -0.0232 ± 0.083

Sequence | self-splicing fitness (ln) (30 °C) | self-splicing fitness (ln) (37 °C)
UAGUAGCAAUAUUACGGUAG | -2.56 ± 0.18 | -1.73 ± 0.22
UUGGAGCAAUAUUACGACUA | -1.58 ± 0.41 | 
GGUAAGCAAUAUUACGAAGG | -3.74 ± 0.25 | -2.84 ± 0.25
UUAGAGCAAUAUUACGCAGG | -2.7 ± 0.2 | -0.784 ± 0.16
CAGAAGCAAUAUUACGGGAG | -1.6 ± 0.12 | -0.856 ± 0.12
CCGGAGCAAUAUUACGGCAG | -3.21 ± 0.24 | -3.16 ± 0.33
CACAAGCAAUAUUACGGGCU | -4.15 ± 0.24 | -2.29 ± 0.17
UUAAAGCAAUAUUACGGAGA | -1.64 ± 0.15 | 0.00703 ± 0.2
CAUCAGCAAUAUUACGAGGC | -3.77 ± 0.2 | -2.64 ± 0.21
UAUAAGCAAUAUUACGGACG | 0.119 ± 0.088 | 0.194 ± 0.11
CAUAAGCAAUAUUACGCACA | -2.05 ± 0.12 | -0.312 ± 0.11
AAUUAGCAAUAUUACGAAAA | -2.54 ± 0.24 | -0.586 ± 0.19
UACAAGCAAUAUUACGAUUC | -3.23 ± 0.13 | -2.04 ± 0.16
UAAGAGCAAUAUUACGUUCA | -1.29 ± 0.13 | -0.735 ± 0.14
UGACAGCAAUAUUACGACGU | -1.48 ± 0.099 | -0.473 ± 0.13
UGCCAGCAAUAUUACGAGGA | -1.49 ± 0.17 | -2.37 ± 0.22
GUGAAGCAAUAUUACGCCAA | -0.702 ± 0.13 | -1.88 ± 0.16
CCGAAGCAAUAUUACGCUUG | -3.79 ± 0.33 | -2.26 ± 0.22
CCACAGCAAUAUUACGUCAA | -2.92 ± 0.15 | -2.22 ± 0.21
CUACAGCAAUAUUACGGACG | -0.196 ± 0.072 | 0.601 ± 0.1
CAUAAGCAAUAUUACGAAAA |  | -3.32 ± 0.34

Sequence | self-splicing fitness (ln) (30 °C) | self-splicing fitness (ln) (37 °C)
AGGAAGCAAUAUUACGGCCG | -0.634 ± 0.12 | -0.462 ± 0.19
CCGAAGCAAUAUUACGCAUA | -2.88 ± 0.27 | -3.64 ± 0.31
CUGCAGCAAUAUUACGACCG | 0.161 ± 0.088 | 0.198 ± 0.12
GCUCAGCAAUAUUACGGUGG | -2.89 ± 0.17 | -1.41 ± 0.11
CUGUAGCAAUAUUACGCUUG | -2.62 ± 0.14 | -2.02 ± 0.16
GACAAGCAAUAUUACGAGUA | -2.1 ± 0.12 | -0.706 ± 0.098
CAAAAGCAAUAUUACGGACA | -2.21 ± 0.15 | -1.64 ± 0.17
UUGGAGCAAUAUUACGUAGA | -3.22 ± 0.27 | -1.77 ± 0.18
UAGUAGCAAUAUUACGCCGU | -2.58 ± 0.24 | -2.23 ± 0.3
AAAGAGCAAUAUUACGUGCA | -2.3 ± 0.14 | -1.19 ± 0.13
CAUGAGCAAUAUUACGAGAA | -0.549 ± 0.29 | 
AGCCAGCAAUAUUACGGGCG | -2.66 ± 0.1 | -0.918 ± 0.1
UCAGAGCAAUAUUACGCAGA | -2.96 ± 0.27 | -1.47 ± 0.21
UGGGAGCAAUAUUACGGUCU | -4.3 ± 0.32 | -2.09 ± 0.22
CUAUAGCAAUAUUACGCGGC | -1.25 ± 0.26 | 0.45 ± 0.25
UUUUAGCAAUAUUACGGGUG | -1.65 ± 0.11 | -0.739 ± 0.14
GGAUAGCAAUAUUACGUGGA | -3.31 ± 0.21 | -2.47 ± 0.21
UAAUAGCAAUAUUACGCGGU | -3 ± 0.31 | -2.29 ± 0.35
GAAAAGCAAUAUUACGCGGA | -2.25 ± 0.14 | -0.603 ± 0.13

From the supplement of paper PMC7877785
